The results in this text go back to PMC8041999.

The labels stand for the following.
B1: FLAG-tagged KIR2DL2, full-length, wild type, on 293T cells [human] / HLA-C*07:02-RL9 tetramer (phycoerythrin-conjugated) [modified: biotin (enzymatically, with biotin ligase)] [human | not stated] (parent)
chain 1: HEGVHRKPSLLAHPGRLVKSEETVILQCWSDVRFEHFLLHREGKFKDTLHLIGEHHDGVSKANFSIGPMMQDLAGTYRCYGSVTHSPYQLSAPSDPLDIVITGLYEKPSLSAQPGPTVLAGESVTLSCSSRSSYDMYHLSREGEAHECRFSAGPKVNGTFQADFPLGPATHGGTYRCFGSFRDSPYEWSNSSDPLLVSVIGNPSNSWPSPTEPSSKTGNPRHLHILIGTSVVIILFILLFFLLHRWCSNKKNAAVMDQESAGNRTANSEDSDEQDPQEVTYTQLNHCVFTQRKITRPSQRPKTPPTDIIVYAELPNAESRSKVVSCP
chain 2: not shown
chain 3: not shown
chain 4: RYRPGTVAL
B2: FLAG-tagged KIR2DL2, full-length, wild type, on 293T cells [human] / HLA-C*03:04-GL9 tetramer (phycoerythrin-conjugated) [modified: biotin (enzymatically, with biotin ligase)] [human] (parent)
chain 1: B1 chain 1
chain 2: not shown
chain 3: not shown
chain 4: GAVDPLLAL
B3: FLAG-tagged KIR2DL3, full-length, wild type, on 293T cells [human] / HLA-C*03:04-GL9 tetramer (phycoerythrin-conjugated) [modified: biotin (enzymatically, with biotin ligase)] [human] (parent)
chain 1: HEGVHRKPSLLAHPGPLVKSEETVILQCWSDVRFQHFLLHREGKFKDTLHLIGEHHDGVSKANFSIGPMMQDLAGTYRCYGSVTHSPYQLSAPSDPLDIVITGLYEKPSLSAQPGPTVLAGESVTLSCSSRSSYDMYHLSREGEAHERRFSAGPKVNGTFQADFPLGPATHGGTYRCFGSFRDSPYEWSNSSDPLLVSVTGNPSNSWPSPTEPSSETGNPRHLHVLIGTSVVIILFILLLFFLLHRWCCNKKNAVVMDQEPAGNRTVNREDSDEQDPQEVTYAQLNHCVFTQRKITRPSQRPKTPPTDIIVYTELPNAEP
chain 2: not shown
chain 3: not shown
chain 4: GAVDPLLAL
B4: FLAG-tagged KIR2DL3, full-length, wild type, on 293T cells [human] / HLA-C*07:02-RL9 tetramer (phycoerythrin-conjugated) [modified: biotin (enzymatically, with biotin ligase)] [human | not stated] (parent)
chain 1: B3 chain 1
chain 2: not shown
chain 3: not shown
chain 4: RYRPGTVAL

The variants in the first assay derive from B1. Briefly: flow cytometry, HLA tetramer staining of transfected 293T cells. The settings on record: with HLA-C*07:02-RL9 tetramer (phycoerythrin-conjugated) [modified: biotin (enzymatically, with biotin ligase)] [human | not stated]; percentage tetramer+ normalised to percentage FLAG+; read off a plot. (In flow cytometry, cells or beads pass a laser one at a time.)
Regarding chain 1 F181A, the ratio to parent was determined as 0.02.

The next assay covers variants of B2. The assay is described as above. Particulars: with HLA-C*03:04-GL9 tetramer (phycoerythrin-conjugated) [modified: biotin (enzymatically, with biotin ligase)] [human]; percentage tetramer+ normalised to percentage FLAG+; read off a plot.
Turning to chain 1 F181A, the ratio to parent came to 0.05.

Variants of B3 are the subject of another assay. Described as above. Particulars: with HLA-C*03:04-GL9 tetramer (phycoerythrin-conjugated) [modified: biotin (enzymatically, with biotin ligase)] [human]; percentage tetramer+ normalised to percentage FLAG+; read off a plot.
In the case of chain 1 F181A, the ratio to parent amounted to 0.07.

The next assay covers variants of B4. The description is as above. Particulars: with HLA-C*07:02-RL9 tetramer (phycoerythrin-conjugated) [modified: biotin (enzymatically, with biotin ligase)] [human | not stated]; percentage tetramer+ normalised to percentage FLAG+; read off a plot.
As to chain 1 F181A, the ratio to parent is 0.06.
